Consider 19 sequences from the DeepSol protein solubility set.

This data set in a line: soluble on expression in E. coli; label from the status in PepcDB or PDB records.
With “MKEDWYRKMYGPSASKTYETSLFNLITSEFGYIGGPDVVKLFTKKIVELNNQYYLREEFVRPGQMRWLVLKAGQKYSKSKKLSEMQLIPVTLTLINPEDIEDRITKVKKNELIEKLIVRLCNETKEQGGVLTETDIAILFRLSCTMISNHVTSYEKRTKKVIPRAGTEMDMGKSLTHKRLAFHNYKKKIPTSENARLIDHTPESVDRYIKDGTRIEKLYAAGYDEWNMAFFTGLPIYVVQEYVEIIKSYEKEKNDKKDIENQ”, the “soluble on expression in E. coli” value is “not soluble”.

For the sequence “MSLIPVVLSGGAGTRLWPVSREGQPKPFMRLPDGQTLLGKTYRRAAGLLAGHGEIVTVTNREHYFQSKDQFHAARLGRHRGHFILEPTGRNTAPAIAVAALGLQAEHGDAAVLVVMPADHLIRNEEAFREAVGHAARLAVAGHLVTFGVVPDAAETGFGYIELGDRLDEQGAAKVRRFVEKPDEETRRRYVESGGFLWNSGMFCFTASTLVDELAQHAPALLEQARACLAASAAVKMADGIQHELAGEGFAALPDISIDYALMERSARVAVVPAAFDWSDIGSWGAMSALLDADAEGNRGSGDTLFVDTRNTFVQSDGRLVATVGVDDLVVVDTSDALLIARADRVQEVRRVVQRLKDEREGHHHHHH”, the “soluble on expression in E. coli” value was “soluble”.

Turning to “MSHGDQLEQYQDQYFDCIKKYDMPAALEVLELIAESCIELNDDDPLIEACERGASYLKCCLKYENLVNLHASQKINDHTLFFLNLEVRRRSTYQCFATTRSFLTPHRKRQLAKTMNAEPRIFAFGLNANNNLGVDTVQSALVDVPTEIYVPPVYEMKMSNFHSVFWCHDGKFFGCGETKNFMISKPDSELPRIVKFPMELDIQIWRNEMIVGIKALENGTLFQTDRRLYFVGDYQKSKAYLKTFHDEEFDMVTQLPYATPNFWITQSRPVSSISAYKLDDKKNVTILRVKSVSYWIQVYPDYWTELNPGYIKKRPVVYLLDDVEVKNIRIETVGCNIIYVVHELTLYFGKMTMTMVENSDGDENNLDNYILFVELHEYRTRSPYLCTGVATNKAQGVLMKCGDFPCVGFDYLEIAENRFRGNVQKYMFETVEKFMESYDVFENDEVSMDYLLSETEKAFNSGVMEQEIKLDWLGRTEKKYRYSNFYSFLGYVSQPRLLTGPPKCFTTDIDTLLTYKDPKLVARHRMKQLFEEFERVNYPGTDVWKPTGFLKSHDIPEEDNLSEGRYRSAAMKWCVNEFMEQFNVYRENPVFNPDNLVYKEILKYLINVIWYALDQWIIITEKTENDRVAPLLREIEHKVPDDEILFQTVYPEKILENRLREGSLKMEDLPEPLNIRVTFLLRHRDPKLKPTRFNLNTCRTFFNFLYPALEDFIDENNVLDLNKLYPDDVAIHRLIAQTYFVGHGLTDLEGSEKYDRSVYDSKGVRLEPMVRFMRKGREHFRGFLRRVPSTSAPGDGPIVFPTADHQAFFKMQRVLYSRLPLTEKLPIDIEDDLYSAAIVGLQDKRVLEVLTMDEKLRILEWYEKAKMPEALMDLLKQCIIESTSKNYYHIRYLFSQYPIMTQRFIAQYRPGIILWHRSPIPNPQIHHVRIITEMWPKNDFERTTRIPRKKFIKNGIVEDSKFYMIGSYLRRDAYKDIHYPAQKTTKLTELFNIDFPVNGPKKSKNQMMLITFPSREIVEEEEPPQEAEQSPSPDPEKIAKRREELRKKIAEKLAASKKKKKR”, the “soluble on expression in E. coli” value is listed as “not soluble”.

In the case of “MANNLMSGIIAQQPPIEAESDVHVVKSRLEWGEPAFTILDVRDRSIYNEGHIMGAMSMPIDELTERAAISLDTSRDIYIYGTNDGQTTQAAQILRSAGFKNVSQLKGGFGAWKAIGGATEGIIESRTPAAADDYNVVSRIQNHIETQQK”, the “soluble on expression in E. coli” value was “not soluble”.

In the case of “MSLTAYLHIGTTNTGNQEKQGFLMQNEEKLLQKAYIYPKSLRVANRHWALVDMVLELVQKEDILKKESVLSHITNERLLRAIENFKSESALHKDKKFIFSAEGIVWDFSTKKHVEILEKIMRELGFTQIYIIVYFRDTLGYLNSHCSQDHKNNMGYYSADFAPQDHPRKYIFDYEWICKTHAEVFGEENLIVRLLREDYVGGTLLKDFVYHLGLEWDESFVLKQTKNESFNLLGMELMSRLNQKDLKQDNLNSLLFMARRKFEGSKEKRLKFAVQKDIAKAYVDYFASSLEWVKNKYFPHKNSLFTPVNWEEYEQNYTLTHMLSKDWDDVADFIAQIIVSKNEIISSLKEQLELAREGHHHHHH”, the “soluble on expression in E. coli” value is recorded as “soluble”.

“VDEIGELADSFNTLTKRVQEAQAMTEGERRKLSSVLAYMTDGVIATDRRGKVILINTPAEKMLRVKHESANGRSIIDVLDIGDTYQFEDLMEVDGSLTMDRSTLDKPYVLRANFSVIQRETG”: the “soluble on expression in E. coli” value is given as “not soluble”.

Take “MHYPEPISKLIDSFMKLPGIGPKTAQRLAFHTLDMKEDDVVQFAKALVDVKRELTYCSVCGHITENDPCYICEDKQRDRSVICVVEDDKDVIAMEKMREYKGLYHVLHGSISPMDGIGPEDINIPSLIERLKSDEVSELILAMNPNLEGESTAMYISRLVKPIGIKVTRLAQGLSVGGDLEYADEVTLSKAIAGRTEM”: the “soluble on expression in E. coli” value is recorded as “not soluble”.

In the case of “TDNTKPNRMPVAPYWTSPEKMEKKLHAVPAAKTVKFKCPSSGTPQPTLRWLKNGKEFKPDHRIGGYKVRYATWSIIMDSVVPSDKGNYTCIVENEYGSINHTYQLDVVERSPHRPILQAGLPANKTVALGSNVEFMCKVYSDPQPHIQWLKHIEVNGSKIGPDNLPYVQILKTAGVNTTDKEMEVLHLRNVSFEDAGEYTCLAGNSIGLSHHSAWLTVLEALEER”, the “soluble on expression in E. coli” value is given as “soluble”.

For “MSGHKCSYPWDLQDRYAQDKSVVNKMQQKYWETKQAFIKATGKKEDEHVVASDADLDAKLELFHSIQRTCLDLSKAIVLYQKRICFLSQEENELGKFLRSQGFQDKTRAGKMMQATGKALCFSSQQRLALRNPLCRFHQEVETFRHRAISDTWLTVNRMEQCRTEYRGALLWMKDVSQELDPDLYKQMEKFRKVQTQVRLAKKNFDKLKMDVCQKVDLLGASRCNLLSHMLATYQTTLLHFWEKTSHTMAAIHESFKGYQPYEFTTLKVWKLEGPLENLEKSKVLFISQAKSIAESIIIPGLRMLKRELCPQQSLFLSFFLFFYCIRIQYNENLLQSKSAN”, the “soluble on expression in E. coli” value is “soluble”.

Take “MSLHRLQKVVRHIAQTEIMPRFLNTPSRRKEDGSMLSEADIAAQTAFAAALPLLIDCPMLGEEMSRQEQSALWEQYSGEKGLWIVDPIDGTNNFVNGLPHFAVSVAFVRNGRAELGVIYNPVSGECFYAERGQGAFLNGTRLPLRLVDKKLNEAIAGVEIKYLRSGKLSSRMSTLAPFGTIRSMGSSTLDWCYLACGRYDVYVHGGQKLWDYAAGALIFEEAGGRLTTLEGDGFWSGEHVFKRSVVAALEPKLFERWVGWIRENQEGHHHHHH”: the “soluble on expression in E. coli” value was “soluble”.

With “MNALKQAVRTYARCHANRDGLAVTTVPGLRTMCVEDPAGDLHSVYRPLVCFVLQGAKRMIVGSEERVFYGGQSVIVAADMPVVGRIVEASSGAPYLAIAVELEMALLREVAAQIGDTCSLRSSGMQTLFAEDTEGAMLDCASRLMHLLDRPDAVPILRPGIMRELHYWLLSGPHGPALRTLADPDSYAGRLAAAIAILRTEYRSRVPVERLAAAAAMSLTAFHKHFKMMTSLTPGQYQKRLRLIEARRLMLDQGFSASNAAFEVGYESVSQFTREYGRLFNMPPKQDALRARAISSIFKHSQADALGAELH”, the “soluble on expression in E. coli” value is listed as “not soluble”.

On to “EAYLGVMINDLVTKEISDPYRLLTSRAEHRLWLRNDNLQERLIEKSRALGLVEADVYANYLEQQQKKKQLIDYLQTTTVGQIAALKLNFKNTAQTLFDFTKRAEIKLVDLVQLLPKRFDLDVQSLNQIDIDIKYAGYIKKSEKYFKSLNNLSSVKIPLKLNYHKVPNLASEAIVKLSKIRPTDLSVASQVAGINFNDILAIKHFLDNHE”, for which the “soluble on expression in E. coli” value is “soluble”.

As to “MAICKVFRNYCKENDIQLHQANFSLSYDTNIPRQTGLSGSSAIVSAALNCLLDFYNVRHLIKVQVRPNIVLSAEKELGIVAGLQDRVAQVYGGLVHMDFSKEHMDKLGHGIYTPMDISLLPPLHLIYAENPSDSGKVHSMVRQRWLDGDEFIISSMKEVGSLAEEGRTALLNKDHSKLVELMNLNFDIRRRMFGDECLGAMNIEMVEVARRVGAASKFTGSGGAVVVFCPEGPSQVKLLEEECRKAGFTLQPVKIAPSCLNDSDIQTL”, the “soluble on expression in E. coli” value was “not soluble”.

For the sequence “MSLKIIDGNIASPLGFSADGLHAGFKKRKKDFGWIVSEVPASVAGVYTTNKVIAAPLIVTRESVKKAQKMQALVVNSGVANSCTGLQGMEDAYTMQKWTATKLKIAPELVGVASTGVIGDLMPMDTLQKGLSKLVVNGNSDDFAQAILTTDTKVKTVAVTEQFGRDEVTMAGVAKGSGMIHPNMATMLAFITCDAVISSETLQLALSQNVETTFNQITVDGDTSTNDMVLVLSNGCTLNKEILPDTPEFDKFSAMLHFVMQELAKKIAKDGEGATKLIEVEVINAPNSLDACMMAKSVVGSSLVKTAIFGEDPNWGRILAAVGYAGVDVPVDNIDIYLADIPVMLASSPVDFDEEDMQDVMRADTIKIIVDLHAGDSVGKAWGCDLSYDYVKINALYRTEGHHHHHH”, the “soluble on expression in E. coli” value is recorded as “soluble”.

As to “MTGTGILARPERNHYFSLALAFCSWVRNGYGVFRYSDKELLFLASINGQPAVMADLSGNDADVAQKVSLFLTMNEEPPEKWQVVSPLEHPDNWESIITRLSSADLRRCKLTVGNRSKFTLPAVLFLVAASAGTVFWMTQPEPDVVPTPEEIAARARLQFKKPDPPPELPHPWASQPVISDFLKACADLRKPSPVALEGWKLTGGTCTPETFTLIYERQPGGTIEGFLARSKEIFNVIPDFNLKDGARLASVTRPLPSLPRRDEAVPTPSEQLMRVFTWFQKKQLTPAINEIAIPEPLPGNDGEPAPVQKWKEYQFSLSTPVNPDELFPLFQDTGVRLSNIHFELNGGTFSYSSEGHIYASRLEHHHHHH”, the “soluble on expression in E. coli” value is on record as “not soluble”.

On to “MSSVTAPRLDRATMGRKGGQKAAERWKTDPESDYATAQRETLAAANKRGARQGTGTRGRVLAVYSQTLVDTGEVPTARQIAGEIGITKRMVNIHLKELRDAGLVEQGLRDIWACGRNLGGFPV”, for which the “soluble on expression in E. coli” value is “not soluble”.

For “GSMEPGPDGPAASGPAAIREGWFRETCSLWPGQALSLQVEQLLHHRRSRYQDILVFRSKTYGNVLVLDGVIQCTERDEFSYQEMIANLPLCSHPNPRKVLIIGGGDGGVLREVVKHPSVESVVQCEIDEDVIQVSKKFLPGMAIGYSSSKLTLHVGDGFEFMKQNQDAFDVIITDSSDPMGPAESLFKESYYQLMKTALKEDGVLCCQGECQWLHLDLIKEMRQFCQSLFPVVAYAYCTIPTYPSGQIGFMLCSKNPSTNFQEPVQPLTQQQVAQMQLKYYNSDVHRAAFVLPEFARKALNDVS”, the “soluble on expression in E. coli” value is reported as “soluble”.

Consider “MPPKTRKTKKEDVEEEAVEEILEETKPAKLPESDESYSRKVVISKEGNLPNSRIIKLRHPKEGLALFRISETCFDEIFAVNDGHRSFFYGESVIENGTIHIFTPYNLVFICLPYLQKTAGKFVEIGEILVDDQVDGIKELAENERILKALEAVSDVKDVLDVKLYRLNDQKMLDWMRRKFDSLKKLLESDAHKSLLSCPEAFDRYVFTFLSEYLSSDLALIVKDHLNIQDATVSENIDMSMKRKAVDDDELEDKKQPVAKKPKESVQSKKLQAASKGTKSISSFFGKKSA”, for which the “soluble on expression in E. coli” value is listed as “soluble”.

As to “MSLKTGRFDQAQADAFAERLLSVLNDAALTLMISIGHRTGLFDVMDKLDFASSEVIAEAAGCNERYVREWLNALVVGGIVDYDAHTKAYQLPAEHASFLTRKSSPQNMAVVAQFIPVLAYVENGIVDAFKHGGGVPYEAYHRFHEVMAEESGQTILSSLTDKILPMVHGLVDKLNQGIQVLDIGCGYGRALILMAKTYPQSQFTGYDLCDETIAHAVHSAKKNKIQNIHFEKMDLSVWDEQEKYDLITSFDVIHDQAKPAQVLSNVFKALKPHGIFLMQDIKTSSDVAGNVHHPLGALIYTISCMHCMTVSLSQNGLGLGAAWGEELAEKMLVEAGFGKIEKHYLEHDIMNTYYVMRKEGHHHHHH”, the “soluble on expression in E. coli” value was “soluble”.
